Assay [1] has as its system MMP-9. Put plainly: MMP inhibition assay (FRET peptide substrate), APMA-activated pro-MMP-9. It is filed as biochemical. As for the experimental part:
Pro-MMP-9 (A) or pro-MMP-2 (C) was incubated with PBS, CLU (50 μg/ml, or 0.63 μM), SB3-CT (2 μM), or BSA (50 μg/ml), and MMP FRET substrate peptides in the presence and absence of […] APMA at RT for 3 h. RFU, relative fluorescence unit, was obtained by considering the read out in PBS as 100%. Each reaction was performed in triplicate. Standard errors were depicted as a bar in each graph. Differences between values of PBS and CLU or SB-3CT reactions were statistically significant by Student t-test: *P=0.0004, **P=0.0001, +P=0.0003, and ++P=0.01. Gelatin zymography was performed with the samples pooled from each reaction set. Pro-MMPs, processed MMPs (MMP-9 or MMP-2), and C-terminal truncated, processed MMP-9 (MMP-9-ΔC) were indicated by arrows. (B) Dose-dependent inhibition of MMP-9 by CLU or SB-3CT was performed in the same condition. MMPs were mixed with CLD in TSCB buffer, 50 mM Tris-HCI, pH, 7.5, 150 mM NaCl, 5 mM CaCl2, 0.002% Brij35 (or otherwise indicated concentration) 30 min prior to substrate addition, and incubated for 3 h at RT in the presence or absence of 0.02 mM p-aminophenylmercuric acetate (APMA). MMP activity was measured using a 5-FAM/QXL520 fluorescence resonance energy transfer (FRET) peptide as a substrate (EXlEm=490 nm/520 nm) (AnaSpec, Fremont, Calif.), according to the manufacturer's protocol. Relative fluorescence unit (RFU) was obtained by subtracting the values of APMA- or enzyme-omitted reactions from those of test samples, and then considering the fluorescence unit of a PBS (vehicle) sample as 100%. Enzyme reactions were performed in black 96-well plate, containing combinations of 10 ng, 5 ng, 5 ng, 10 ng, 2.5 μg, 2.5 μg of MMP-2, MMP-7, catalytic domain of MMP-9, MMP-9, CCLU, and/or BSA, respectively, in 50 μl reaction volume. As MMP substrates (0.4 μM), 520 MMP FRET substrate […] (SEQ ID NO: 9), was used for MMP-2 and MMP-9, and 520 MMP FRET substrate XIV, […] (SEQ ID NO: 10), used for MMP-7 reactions, both of which were purchased from AnaSpec (Fremont, Calif.). Recombinant proteins such as mouse CLU with C-terminal (His)6 (CLU-His), MMP-2, and MMP-7 were purchased from R&D Systems (Minneapolis, Minn.), MMP-9 was purchase from Ana-Spec, Inc. (San Jose, Calif.). The recombinant catalytic domain of human MMP-9 (residue 112-445) was purchased from ProtEra (Sesto Fiorentino, Italy). A gelatinase-specific synthetic inhibitor, SB-3CT, was obtained from Biomol International (Plymouth Meeting, Pa.). Fluorescence was monitored using a Victor^3TM V multilabel counter (PerkinElmer). For the gelatin digestion, a 50 μl mixture of gelatin (20 μg) and CLU (2 μg) was incubated with or without active MMP-9 (70 ng) for 2 hours at 37° C. The reaction products were run on a 12% denaturing SDS/PAGE gel for Coomasie staining. […] To determine whether MMP-9/CLU interaction affects the cleavage process of the propeptide of MMP-9 and/or interferes with enzymatic activity of the processed active enzyme, we performed an in vitro MMP-9 inhibition assay, by adopting FRET assay using a fluorescence-quenched peptide substrate (FIG. 3A). […] We incubated pro-MMP-9 with PBS, CLU, SB-3CT, or BSA, and a fluorescence peptide substrate in the presence or absence of APMA. […] We monitored the change in fluorescence value during the incubation of the reactions up to 3 h, which reflects the enzymatic activity of APMA-activated MMPs. […] At 3 h post incubation, the activity difference was read and reaction products were resolved by gelatin zymography. […]

In assay [2] the target is T1, MMP-2 (Mus musculus, UniProt P33434).
T1 construct: purchased R&D Systems
T1 sequence (P33434 110-662): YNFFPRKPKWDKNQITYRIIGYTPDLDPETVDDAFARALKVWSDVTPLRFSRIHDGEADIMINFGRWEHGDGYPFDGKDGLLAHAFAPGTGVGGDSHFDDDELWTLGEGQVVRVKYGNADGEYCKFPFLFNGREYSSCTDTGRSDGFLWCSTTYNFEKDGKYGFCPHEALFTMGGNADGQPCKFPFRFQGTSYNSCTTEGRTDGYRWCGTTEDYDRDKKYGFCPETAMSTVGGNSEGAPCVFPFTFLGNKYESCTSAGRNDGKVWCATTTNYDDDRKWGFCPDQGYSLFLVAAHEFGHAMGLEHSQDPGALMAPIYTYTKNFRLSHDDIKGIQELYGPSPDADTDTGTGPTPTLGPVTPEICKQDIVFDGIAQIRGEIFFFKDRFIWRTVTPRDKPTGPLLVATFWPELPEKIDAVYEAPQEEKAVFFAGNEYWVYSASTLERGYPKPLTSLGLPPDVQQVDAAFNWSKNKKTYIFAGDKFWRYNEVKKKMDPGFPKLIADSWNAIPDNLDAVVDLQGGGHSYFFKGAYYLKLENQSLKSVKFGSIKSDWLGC
Put plainly: In vitro protein binding assay (CLU-His pull-down, gelatin zymography), MMP-2. To be noted: 150 mM NaCl binding buffer. The procedure: A mixture of MMP-2, MMP-9, and C-terminal truncated MMP-9 (9-ΔC) was incubated with His-tagged CLU, used in a pull-down assay and resolved on a gelatin zymography gel. The input and bound samples were loaded in a series of dilution.
Next, we tested the interaction of secreted CLU using mouse recombinant proteins. We used purified recombinant proteins of MMP-2, MMP-9, and CLU that were secreted from a mouse myeloma cell line (NSO). All of the proteins were purchased from R&D Systems. A mixture of MMP-2, MMP-9, and C-terminal truncated MMP-9 (9-ΔC) was incubated with His-tagged CLU, and subjected to the pull-down assay, using 150 mM NaCl-containing binding buffer and anti-His tag antibody resins. Portions of the input samples (Input) and proteins bound to the antibody (Bound) were resolved on the gelatin zymography gel.
The recombinant CLU contains a (His)6-Tag at the C-terminus of the protein, which was used for pull-down experiments with anti-His tag antibody beads. It was previously reported that CLU also binds to MT6-MMP/mmp-25 and that the hemopexin domain in the MMP C-terminal region is required for their interaction (Matsuda et al., 2003). To use as an internal control for the binding experiment, we removed part of MMP-9 (MMP-9-ΔC) by promoting self-processing by APMA (4-aminophenylmercuric acetate) treatment. […]

B1: CLU: secreted disulfide-linked heterodimeric glycoprotein (70-80 KD); assays used recombinant mouse CLU with C-terminal (His)6 (protein, UniProt Q06890 22-448, looked up)
Clusterin: EQEVSDNELQELSTQGSRYINKEIQNAVQGVKHIKTLIEKTNAERKSLLNSLEEAKKKKEDALEDTRDSEMKLKAFPEVCNETMMALWEECKPCLKHTCMKFYARVCRSGSGLVGQQLEEFLNQSSPFYFWMNGDRIDSLLESDRQQSQVLDAMQDSFARASGIIDTLFQDRFFARELHDPHYFSPIGFPHKRPHFLYPKSRLVRSLMSPSHYGPPSFHNMFQPFFEMIHQAQQAMDVQLHSPAFQFPDVDFLREGEDDRTVCKEIRRNSTGCLKMKGQCEKCQEILSVDCSTNNPAQANLRQELNDSLQVAERLTEQYKELLQSFQSKMLNTSSLLEQLNDQFNWVSQLANLTQGEDKYYLRVSTVTTHSSDSEVPSRVTEVVVKLFDSDPITVVLPEEVSKDNPKFMDTVAEKALQEYRRKSRAE
modifications: C-terminal His6 tag
Turning to B1, in assay [1] (50 μg/ml of CLU, p=0.002), the “average inhibition of MMP-9, three independent experiments in triplicate” value was 35%. Also, in assay [1] (APMA-treated reactions), the “effect on APMA-induced processing of pro-MMP-9 (zymography)” value is reported as “did not affect the enzyme processing by APMA”. Also, the “inhibition of the activity of MMP-9” value in assay [1] (CLU 50 μg/ml (0.63 μM), APMA, RT 3 h, 0.002% Brij 35, compared with PBS and BSA) was 28%. In addition, in assay [1] (FIG. 3B), the “dose-dependent inhibition of MMP-9, comparison with SB-3CT” value was “stronger MMP-9 inhibitor than a synthetic gelatinase inhibitor, SB-3CT”. In addition, the “MMP-9 inhibition at high detergent concentration” value in assay [1] (pro-MMP-9 or APMA-activated MMP-9, 0.04% Brij 35 or NP-40) is “little MMP-9 inhibition”. For the same molecule, in assay [2], the “binding of MMP-2 to His-tagged CLU” value is reported as “Though weaker than MMP-9, MMP-2 also had an affinity for CLU”.
